This note sets out measurements from PMC2710387.

B1: Sp1 (-346) unmethylated (Sp1-1) (dsDNA)
DNA 1: TCCACCCTCCGCCCCGCGCCGTCC
DNA 2: GGACGGCGCGGGGCGGAGGGTGGA
B2: Sp1 (-268) unmethylated (Sp1-2) (dsDNA)
DNA 1: TTCTCGTCCCCGCCCCGTCCCGCC
DNA 2: GGCGGGACGGGGCGGGGACGAGAA
B3: Sp1 (-268) methylated (Sp1-2 M) (dsDNA)
DNA 1: TTCTCGTCCCCGCCCCGTCCCGCC
DNA 2: GGCGGGACGGGGCGGGGACGAGAA
modifications: 5-methylcytosine (printed mC): strand 1 C5,C11,C16,C21,C24; strand 2 C3,C8,C13,C19
B4: Sp1 (-346) methylated (Sp1-1 M) (dsDNA)
DNA 1: TCCACCCTCCGCCCCGCGCCGTCC
DNA 2: GGACGGCGCGGGGCGGAGGGTGGA
modifications: 5-methylcytosine (printed mC): strand 1 C10,C15,C17,C20,C24; strand 2 C4,C7,C9,C14

SP1 (recombinant, purified, Promega), sequence (P08047 2-785): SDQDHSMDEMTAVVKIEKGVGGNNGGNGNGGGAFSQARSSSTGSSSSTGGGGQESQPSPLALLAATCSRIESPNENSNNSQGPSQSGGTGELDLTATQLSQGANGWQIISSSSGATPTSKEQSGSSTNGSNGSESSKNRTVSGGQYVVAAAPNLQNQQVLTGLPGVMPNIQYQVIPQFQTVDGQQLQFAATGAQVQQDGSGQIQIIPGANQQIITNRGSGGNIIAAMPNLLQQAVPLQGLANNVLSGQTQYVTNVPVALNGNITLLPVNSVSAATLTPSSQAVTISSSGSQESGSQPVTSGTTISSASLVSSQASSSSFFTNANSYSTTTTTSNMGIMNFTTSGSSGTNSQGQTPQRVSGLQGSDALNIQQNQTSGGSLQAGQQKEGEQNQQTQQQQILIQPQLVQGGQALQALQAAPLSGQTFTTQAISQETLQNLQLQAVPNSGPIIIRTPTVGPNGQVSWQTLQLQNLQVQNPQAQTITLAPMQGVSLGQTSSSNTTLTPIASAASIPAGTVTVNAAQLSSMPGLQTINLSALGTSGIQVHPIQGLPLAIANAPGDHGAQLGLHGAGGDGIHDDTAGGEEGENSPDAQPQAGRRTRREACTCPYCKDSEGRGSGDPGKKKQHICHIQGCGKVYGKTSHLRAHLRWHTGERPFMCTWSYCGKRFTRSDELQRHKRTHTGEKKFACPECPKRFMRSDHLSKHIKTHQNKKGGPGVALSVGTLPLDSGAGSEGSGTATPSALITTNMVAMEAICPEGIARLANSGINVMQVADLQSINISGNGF

The data set concerns the target SP1 (recombinant, purified, Promega) (UniProt P08047 2-785). The experiment in a line: EMSA. In general terms: In EMSA bound probe runs differently from free probe, usually more slowly.
B1: the binding result was “binds”. Turning to B2, the binding result was “binds”. As for B3, the binding result is given as “no binding”.

As for B4, the binding result is recorded as “no binding”.
